The values that follow come from paper PMC9578707, “Identification of orphan ligand-receptor relationships using a cell-based CRISPRa enrichment screening platform” (eLife, 2022).

Data set [1] deals with T1, growth arrest specific 1 protein (human, UniProt P54826 40-317, biotin (biotinylated in vitro with BirA) where used on beads or as tetramer).
T1 construct: growth arrest specific 1, human; also called GAS1; source: Expi293F, purified (Ni-NTA, SEC); not shown: AviTag, C-terminal, kept
T1 sequence (looked up): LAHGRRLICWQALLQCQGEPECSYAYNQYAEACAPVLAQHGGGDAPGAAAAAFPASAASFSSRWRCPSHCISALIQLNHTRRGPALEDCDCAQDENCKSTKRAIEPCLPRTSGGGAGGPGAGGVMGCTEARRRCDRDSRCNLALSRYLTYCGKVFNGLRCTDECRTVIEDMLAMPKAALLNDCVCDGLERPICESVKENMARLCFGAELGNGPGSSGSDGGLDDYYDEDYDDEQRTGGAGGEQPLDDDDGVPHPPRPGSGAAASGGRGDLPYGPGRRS
As to the kind of experiment: SPR; Biacore T100; biotinylated receptor ECD or hit protein captured on a streptavidin chip (~100-200 RU), non-biotinylated secreted ligand as analyte in twofold dilutions; HBS-P+ buffer; 1:1 Langmuir model or equilibrium fit. Conditions: both partners purified. (In SPR one partner is held on a chip, and binding of the other changes the refractive index at the surface.)

Data set [2] concerns the target T2, growth arrest specific 1 protein (GAS1) (human, UniProt P54826 40-317).
T2 construct: growth arrest specific 1 (GAS1), human; source: Expi293F, purified (Ni-NTA, SEC), not biotinylated (SPR analyte)
T2 sequence (looked up): T1 sequence (looked up)
As to the kind of experiment: SPR; Biacore T100; biotinylated ligand captured on a streptavidin (SA) Series S chip (~100-200 RU); non-biotinylated analyte in twofold dilutions in HBS-P+; 60 s injection at 30 ul/min, 240 s dissociation; regeneration 2 x 10 sec 2M MgCl2; KD from the fit at equilibrium (steady state). As to conditions: both partners purified.

Data set [3] deals with the molecule itself. As to the kind of experiment: SPR; Biacore T100; biotinylated receptor ECD or hit protein captured on a streptavidin chip (~100-200 RU), non-biotinylated secreted ligand as analyte in twofold dilutions; HBS-P+ buffer; 1:1 Langmuir model or equilibrium fit.
For data set [4], the target named is T3, human PTPRU-ECD (human, UniProt Q92729 19-749, biotin where captured on the streptavidin chip).
T3 construct: PTPRU, human, extracellular domain; construct of the ECD is not described; source: Expi293F, purified (Ni-NTA, SEC)
T3 sequence (looked up): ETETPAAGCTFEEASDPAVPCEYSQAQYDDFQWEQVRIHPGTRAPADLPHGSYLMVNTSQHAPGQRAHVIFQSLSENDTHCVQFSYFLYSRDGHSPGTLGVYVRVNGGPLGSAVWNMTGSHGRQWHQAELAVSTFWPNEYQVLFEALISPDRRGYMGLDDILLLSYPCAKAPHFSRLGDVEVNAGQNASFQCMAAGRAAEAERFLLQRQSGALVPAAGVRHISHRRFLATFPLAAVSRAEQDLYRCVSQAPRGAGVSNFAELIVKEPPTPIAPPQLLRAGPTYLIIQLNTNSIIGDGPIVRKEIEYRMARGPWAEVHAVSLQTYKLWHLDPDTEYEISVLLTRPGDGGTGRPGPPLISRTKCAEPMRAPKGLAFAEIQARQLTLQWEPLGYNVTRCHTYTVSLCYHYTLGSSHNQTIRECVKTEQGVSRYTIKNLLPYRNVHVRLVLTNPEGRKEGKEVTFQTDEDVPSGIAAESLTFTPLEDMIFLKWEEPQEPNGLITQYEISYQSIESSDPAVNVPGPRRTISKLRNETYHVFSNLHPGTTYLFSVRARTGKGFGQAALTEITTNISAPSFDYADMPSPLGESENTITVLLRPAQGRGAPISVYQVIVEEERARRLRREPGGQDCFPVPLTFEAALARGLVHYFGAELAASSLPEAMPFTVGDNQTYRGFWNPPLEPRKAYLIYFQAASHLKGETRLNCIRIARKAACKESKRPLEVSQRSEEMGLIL
The data set is described as above. Conditions: both partners purified.

In data set [5] the target is T4, human PTPRU-ECD (human, UniProt Q92729 19-749, biotin where captured on the streptavidin chip).
T4 chain: T3 sequence (looked up)
As to the kind of experiment: SPR.

In data set [6] the target is T5, PTPRS ECD (human, UniProt Q13332 30-1282, biotin where captured on the streptavidin chip).
T5 construct: PTPRS, human, extracellular domain; construct of the ECD is not described; source: Expi293F, purified (Ni-NTA, SEC)
T5 sequence (looked up): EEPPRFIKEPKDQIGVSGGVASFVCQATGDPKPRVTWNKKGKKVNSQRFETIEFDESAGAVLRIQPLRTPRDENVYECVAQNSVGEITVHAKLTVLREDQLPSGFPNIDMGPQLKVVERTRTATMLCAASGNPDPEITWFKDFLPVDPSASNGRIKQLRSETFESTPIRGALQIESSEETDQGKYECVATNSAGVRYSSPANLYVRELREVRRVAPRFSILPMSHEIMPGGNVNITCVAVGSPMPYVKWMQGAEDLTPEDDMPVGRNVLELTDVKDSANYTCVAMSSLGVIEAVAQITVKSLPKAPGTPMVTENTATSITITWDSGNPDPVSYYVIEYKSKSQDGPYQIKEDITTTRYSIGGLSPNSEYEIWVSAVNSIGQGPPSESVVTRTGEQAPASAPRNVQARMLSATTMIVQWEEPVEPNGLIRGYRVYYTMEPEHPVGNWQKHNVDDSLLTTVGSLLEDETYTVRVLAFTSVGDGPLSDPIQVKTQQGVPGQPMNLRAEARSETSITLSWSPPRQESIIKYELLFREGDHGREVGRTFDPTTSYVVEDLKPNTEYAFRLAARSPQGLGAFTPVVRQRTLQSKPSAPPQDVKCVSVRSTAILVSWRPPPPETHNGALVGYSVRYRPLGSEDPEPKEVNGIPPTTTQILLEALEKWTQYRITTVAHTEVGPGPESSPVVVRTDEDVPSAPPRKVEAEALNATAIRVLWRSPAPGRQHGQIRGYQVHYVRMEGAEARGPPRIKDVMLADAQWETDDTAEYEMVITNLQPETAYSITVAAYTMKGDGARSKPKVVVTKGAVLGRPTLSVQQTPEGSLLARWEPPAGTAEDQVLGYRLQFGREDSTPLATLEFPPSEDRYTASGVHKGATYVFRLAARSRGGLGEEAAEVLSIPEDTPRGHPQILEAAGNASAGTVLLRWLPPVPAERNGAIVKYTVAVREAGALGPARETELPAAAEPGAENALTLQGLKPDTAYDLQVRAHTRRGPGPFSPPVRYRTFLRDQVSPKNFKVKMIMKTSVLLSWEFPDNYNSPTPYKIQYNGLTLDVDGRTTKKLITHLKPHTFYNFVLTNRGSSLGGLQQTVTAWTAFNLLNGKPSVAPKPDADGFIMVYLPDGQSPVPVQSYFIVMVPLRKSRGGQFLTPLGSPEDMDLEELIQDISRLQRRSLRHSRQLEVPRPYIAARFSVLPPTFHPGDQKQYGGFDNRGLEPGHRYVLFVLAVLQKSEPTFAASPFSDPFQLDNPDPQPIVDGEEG
As to the kind of experiment: SPR; Biacore T100; biotinylated secreted ligand (OMG, PTN or MDK) captured on a streptavidin chip, receptor ECD as analyte; HBS-P+ buffer. Conditions: both partners purified.

Data set [7] addresses T6, PTPRF ECD (human, UniProt P10586 30-1263, biotin where captured on the streptavidin chip).
T6 construct: PTPRF, human, extracellular domain; construct of the ECD is not described; also called PRPRF; source: Expi293F, purified (Ni-NTA, SEC)
Described as above. As to conditions: both partners purified.

Data set [8] concerns the target T7, PTPRD ECD (human, UniProt P23468 21-1265, biotin where captured on the streptavidin chip).
T7 construct: PTPRD, human, extracellular domain; construct of the ECD is not described; source: Expi293F, purified (Ni-NTA, SEC)
Described as above. As to conditions: both partners purified.

Data set [9] concerns the target ROR1 and MFRP. The experiment in a line: SPR; Biacore T100; biotinylated receptor ECD or hit protein captured on a streptavidin chip (~100-200 RU), non-biotinylated secreted ligand as analyte in twofold dilutions; HBS-P+ buffer; 1:1 Langmuir model or equilibrium fit.
In data set [10] the target is T8, MFRP-ECD (human, UniProt Q9BY79 91-579, biotin (captured on the streptavidin chip)).
T8 construct: membrane Frizzled-related protein, human, extracellular domain; construct of the ECD is not described; also called membrane Frizzled (FZD)-related protein; source: Expi293F, purified (Ni-NTA, SEC)
T8 sequence (looked up): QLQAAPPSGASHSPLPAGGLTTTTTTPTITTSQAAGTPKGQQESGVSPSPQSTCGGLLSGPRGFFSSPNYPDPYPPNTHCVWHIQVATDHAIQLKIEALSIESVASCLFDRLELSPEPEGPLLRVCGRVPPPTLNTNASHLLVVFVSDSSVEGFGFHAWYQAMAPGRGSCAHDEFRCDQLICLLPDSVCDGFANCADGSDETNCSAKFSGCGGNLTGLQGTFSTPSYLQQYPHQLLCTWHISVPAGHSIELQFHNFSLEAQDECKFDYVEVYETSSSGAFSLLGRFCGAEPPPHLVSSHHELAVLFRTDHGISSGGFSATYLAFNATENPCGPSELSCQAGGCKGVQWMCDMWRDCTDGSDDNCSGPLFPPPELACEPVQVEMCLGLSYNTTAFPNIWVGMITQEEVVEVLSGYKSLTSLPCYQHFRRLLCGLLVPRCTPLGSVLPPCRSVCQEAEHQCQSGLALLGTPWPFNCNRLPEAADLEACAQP
The description is as above. Conditions: both partners purified.

The target in data set [11] is T9, ROR1-ECD (human, UniProt Q01973 30-406, biotin (captured on the streptavidin chip)).
T9 construct: ROR1, human, extracellular domain; construct of the ECD is not described; source: Expi293F, purified (Ni-NTA, SEC)
Described as above. Conditions: both partners purified.

T7 sequence (P23468 21-1265): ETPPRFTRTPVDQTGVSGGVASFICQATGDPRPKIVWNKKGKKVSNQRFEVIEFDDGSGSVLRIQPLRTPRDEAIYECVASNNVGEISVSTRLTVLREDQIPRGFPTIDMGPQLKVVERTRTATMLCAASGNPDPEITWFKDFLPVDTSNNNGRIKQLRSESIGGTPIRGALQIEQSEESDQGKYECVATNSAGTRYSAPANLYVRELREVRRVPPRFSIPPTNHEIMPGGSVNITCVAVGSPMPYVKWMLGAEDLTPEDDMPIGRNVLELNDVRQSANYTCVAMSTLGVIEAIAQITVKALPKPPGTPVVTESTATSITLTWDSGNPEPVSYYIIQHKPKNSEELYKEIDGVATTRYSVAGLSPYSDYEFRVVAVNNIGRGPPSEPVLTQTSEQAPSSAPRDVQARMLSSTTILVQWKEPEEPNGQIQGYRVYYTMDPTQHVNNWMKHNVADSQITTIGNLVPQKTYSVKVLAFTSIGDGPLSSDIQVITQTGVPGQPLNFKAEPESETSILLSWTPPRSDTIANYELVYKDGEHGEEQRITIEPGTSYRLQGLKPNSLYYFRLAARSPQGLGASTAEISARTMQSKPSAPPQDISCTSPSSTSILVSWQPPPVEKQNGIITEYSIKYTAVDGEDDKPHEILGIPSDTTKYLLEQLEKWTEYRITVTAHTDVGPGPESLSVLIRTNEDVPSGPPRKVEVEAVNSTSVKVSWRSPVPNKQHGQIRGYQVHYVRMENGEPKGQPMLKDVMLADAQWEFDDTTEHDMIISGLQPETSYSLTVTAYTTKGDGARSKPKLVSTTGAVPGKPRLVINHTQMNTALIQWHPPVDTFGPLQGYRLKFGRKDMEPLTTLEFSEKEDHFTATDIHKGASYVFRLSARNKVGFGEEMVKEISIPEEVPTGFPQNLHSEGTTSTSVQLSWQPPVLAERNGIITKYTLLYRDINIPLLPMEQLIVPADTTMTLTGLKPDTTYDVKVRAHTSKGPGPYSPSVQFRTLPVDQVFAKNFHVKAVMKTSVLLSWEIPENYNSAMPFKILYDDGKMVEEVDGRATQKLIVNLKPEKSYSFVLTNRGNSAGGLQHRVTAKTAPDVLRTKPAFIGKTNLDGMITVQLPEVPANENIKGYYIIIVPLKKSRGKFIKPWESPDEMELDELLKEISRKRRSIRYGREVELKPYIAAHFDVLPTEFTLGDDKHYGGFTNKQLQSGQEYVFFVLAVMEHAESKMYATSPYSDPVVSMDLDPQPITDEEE

B1: PTPRA-ECD (domain or fragment, human, UniProt P18433 20-151, looked up)
chain: NNATTVAPSVGITRLINSSTAEPVKEEAKTSNPTSSLTSLSVAPTFSPNITLGPTYLTTVNSSDSDNGTTRTASTNSIGITISPNGTWLPDNQFTDARTEPWEGNSSTAATTPETFPPSGNSDSKDRRDETP
modifications: biotin (captured on the streptavidin chip)
notes: PTPRA, human, extracellular domain; construct of the ECD is not described; source: Expi293F, purified (Ni-NTA, SEC)
Turning to B1, in [1], the Kd was about 1 µM.

B2: PTPRA-ECD (receptor protein tyrosine phosphatase alpha, extracellular domain) (domain or fragment, human, UniProt P18433 20-151, looked up)
chain: B1 chain
modifications: biotin (BirA biotinylation; captured on streptavidin chip)
notes: receptor-type protein tyrosine phosphatase alpha (PTPRA, R4 subfamily), human, extracellular domain; source: Expi293F, purified (Ni-NTA, SEC), biotinylated in vitro with BirA
In data set [2], B2 displayed a Kd of 1.13 µM.

B3: SMOC1 (ligand, human, UniProt Q9H4F8 27-434, looked up)
chain: HRTTGPRFLISDRDPQCNLHCSRTQPKPICASDGRSYESMCEYQRAKCRDPTLGVVHRGRCKDAGQSKCRLERAQALEQAKKPQEAVFVPECGEDGSFTQVQCHTYTGYCWCVTPDGKPISGSSVQNKTPVCSGSVTDKPLSQGNSGRKDDGSKPTPTMETQPVFDGDEITAPTLWIKHLVIKDSKLNNTNIRNSEKVYSCDQERQSALEEAQQNPREGIVIPECAPGGLYKPVQCHQSTGYCWCVLVDTGRPLPGTSTRYVMPSCESDARAKTTEADDPFKDRELPGCPEGKKMEFITSLLDALTTDMVQAINSAAPTGGGRFSEPDPSHTLEERVVHWYFSQLDSNSSNDINKREMKPFKRYVKKKAKPKKCARRFTDYCDLNKDKVISLPELKGCLGVSKEGRLV
modifications: biotin (biotinylated in vitro with BirA) where used on beads or captured on the chip
notes: SMOC1, human; also called SPARC-related ligand; source: Expi293F, purified (Ni-NTA, SEC); not shown: AviTag, C-terminal, kept
B3: the binding result in [3] is “binds”.

B4: oligodendrocyte-myelin glycoprotein (ligand, human, UniProt P23515 25-417, looked up)
chain: ICPLQCICTERHRHVDCSGRNLSTLPSGLQENIIHLNLSYNHFTDLHNQLTQYTNLRTLDISNNRLESLPAHLPRSLWNMSAANNNIKLLDKSDTAYQWNLKYLDVSKNMLEKVVLIKNTLRSLEVLNLSSNKLWTVPTNMPSKLHIVDLSNNSLTQILPGTLINLTNLTHLYLHNNKFTFIPDQSFDQLFQLQEITLYNNRWSCDHKQNITYLLKWMMETKAHVIGTPCSTQISSLKEHNMYPTPSGFTSSLFTVSGMQTVDTINSLSVVTQPKVTKIPKQYRTKETTFGATLSKDTTFTSTDKAFVPYPEDTSTETINSHEAAAATLTIHLQDGMVTNTSLTSSTKSSPTPMTLSITSGMPNNFSEMPQQSTTLNLWREETTTNVKTPLPS
modifications: biotin (biotinylated in vitro with BirA) where used on beads or captured on the chip
notes: oligodendrocyte-myelin glycoprotein, human; also called OMG; source: Expi293F, purified (Ni-NTA, SEC); not shown: AviTag, C-terminal, kept
For the molecule B4, in data set [4], the Kd was about 0.07 µM. For the same molecule, the koff in data set [5] turned out to be 0.00042 s⁻¹. Moreover, the binding result in [6], in data set [7] and in data set [8] was “binds” in each case.

B5: pleiotrophin (ligand, human, UniProt P21246 33-168, looked up)
chain: GKKEKPEKKVKKSDCGEWQWSVCVPTSGDCGLGTREGTRTGAECKQTMKTQRCKIPCNWKKQFGAECKYQFQAWGECDLNTALKTRTGSLKRALHNAECQKTVTISKPCGKLTKPKPQAESKKKKKEGKKQEKMLD
modifications: biotin (biotinylated in vitro with BirA) where used on beads or captured on the chip
notes: pleiotrophin, human; also called PTN; source: Expi293F, purified (Ni-NTA, SEC); not shown: AviTag, C-terminal, kept
Consider B5, for which the Kd in [9] was in the range of 1 to 2 µM. The binding result in [10] and in [11] was “binds” each time.

What is called Kd is the free concentration of one partner at which half of the binding sites on the other are occupied at equilibrium, for simple one-to-one binding. A low value points to higher affinity. Usually koff stands for the first-order rate constant of dissociation. Higher therefore signals fast dissociation.
